# Data: paper PMC6265327
# Biological target: CMG assembled in vitro on roadblocked linear DNA from loaded MCM double hexamers and purified firing factors (yeast (strains based on W303)) (UniProt Q08032)
# Test: negative-stain EM with 2D classification; origin activation reconstituted with purified yeast proteins on bead-tethered linear DNA capped by covalent protein roadblocks; eluted by DNA digestion at a single site; particles counted in 2D class averages
substance,measurement,value
"Pol epsilon used in the reconstituted origin activation (MCM train) reactions, P21951 1-2222; P24482 1-689; P27344 1-201; Q04603 1-196",percent of isolated (not train-incorporated) CMG particles bound by Pol epsilon,2%
